Patent US20090291890A1 (published 2009)
Where a chain is given by its changes, count along the chain named. Names may count otherwise. “And” between values parts separate entries of the source, which are not always exact repeats. Identical values can stand only once. Values belong to the molecule of their own block, whether it stands above or below them.

Columns and labels:
[1] = target: Factor X (Homo sapiens (Human)) (UniProt P00742)
[2] = target: Factor X (FX) (Homo sapiens (Human)) (UniProt P00742)
Sequence of Factor X (FX) (Homo sapiens (Human)) (P00742 41-488 limits assumed): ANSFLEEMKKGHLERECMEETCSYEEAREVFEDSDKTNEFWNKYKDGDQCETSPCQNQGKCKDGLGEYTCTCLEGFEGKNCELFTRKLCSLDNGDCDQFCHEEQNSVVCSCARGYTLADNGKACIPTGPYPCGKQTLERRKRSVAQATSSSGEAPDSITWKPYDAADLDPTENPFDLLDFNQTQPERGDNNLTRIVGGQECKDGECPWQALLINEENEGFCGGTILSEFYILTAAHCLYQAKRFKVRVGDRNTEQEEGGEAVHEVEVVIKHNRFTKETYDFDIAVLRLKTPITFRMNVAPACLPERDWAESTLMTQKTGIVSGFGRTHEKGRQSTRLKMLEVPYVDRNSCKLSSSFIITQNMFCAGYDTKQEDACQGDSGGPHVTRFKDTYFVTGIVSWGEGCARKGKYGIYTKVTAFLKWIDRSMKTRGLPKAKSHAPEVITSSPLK

Molecule: M298Q-FVIIa (enzyme)
- kcat/KM (M^-1s^-1), TF-dependent assay [1]: 6.76e+07 M⁻¹ s⁻¹ and 7.46e+07 M⁻¹ s⁻¹
- kcat/KM, TF-independent assay [1]: 69.9 M⁻¹ s⁻¹

Molecule: {Gla swap FIX/M19K/E40L/K43I/Q44S}/Q286R/M298Q-FVIIa (enzyme)
- kcat/KM (M^-1s^-1), TF-dependent assay [1]: 1.21e+08 M⁻¹ s⁻¹

Molecule: FVIIa variant T128N/P129A/A175S (enzyme)
- kcat/KM, TF-Dependent Indirect Assay [2]: 2.98e+07 M⁻¹ s⁻¹

Molecule: T128N/P129A/S222A/T239V/H257A/Q286R/M298Q-FVIIa (enzyme)
- kcat/KM (M^-1s^-1), TF-dependent assay [1]: 1.21e+08 M⁻¹ s⁻¹
- kcat/KM, TF-independent assay [1]: 179 M⁻¹ s⁻¹

Molecule: T239V/Q286R-FVIIa (enzyme)
- kcat/KM (M^-1s^-1), TF-dependent assay [1]: 8.84e+07 M⁻¹ s⁻¹
- kcat/KM, TF-independent assay [1]: 11.8 M⁻¹ s⁻¹

Molecule: T128N/P129A/T239V/Q286R/M298Q-FVIIa (enzyme)
- kcat/KM (M^-1s^-1), TF-dependent assay [1]: 1.04e+08 M⁻¹ s⁻¹
- kcat/KM, TF-independent assay [1]: 230 M⁻¹ s⁻¹

Molecule: T128N/P129A/M298Q/H373F-FVIIa (enzyme)
- kcat/KM (M^-1s^-1), TF-dependent assay [1]: 6.07e+07 M⁻¹ s⁻¹
- kcat/KM, TF-independent assay [1]: 91.6 M⁻¹ s⁻¹

Molecule: FVIIa variant K109N (enzyme)
- kcat/KM, TF-Dependent Indirect Assay [2]: 5.97e+07 M⁻¹ s⁻¹

Molecule: FVIIa variant Q286R (enzyme)
- kcat/KM, TF-Dependent Indirect Assay [2]: 1.11e+08 M⁻¹ s⁻¹

Molecule: Gla swap FIX/S222A/T239I/Q286R-FVIIa (enzyme)
- kcat/KM, TF-independent assay [1]: 20.3 M⁻¹ s⁻¹

Molecule: WT (NovoSeven-RT®) (enzyme)
- kcat/KM (M^-1s^-1), TF-dependent assay [1]: 3.48e+07 M⁻¹ s⁻¹

Molecule: FVIIa variant S119N/L121S/A175S (enzyme)
- kcat/KM, TF-Dependent Indirect Assay [2]: 2.92e+07 M⁻¹ s⁻¹

Molecule: T128N/P129A/T239I/Q286R/M298Q-FVIIa (enzyme)
- kcat/KM (M^-1s^-1), TF-dependent assay [1]: 8.17e+07 M⁻¹ s⁻¹
- kcat/KM, TF-independent assay [1]: 77.8 M⁻¹ s⁻¹

Molecule: T128N/P129A/M298Q-FVIIa (enzyme)
- kcat/KM (M^-1s^-1), TF-dependent assay [1]: 6.29e+07 M⁻¹ s⁻¹
- kcat/KM, TF-independent assay [1]: 90.8 M⁻¹ s⁻¹

Molecule: FVIIa variant K109N/A175S (enzyme)
- kcat/KM, TF-Dependent Indirect Assay [2]: 3.67e+07 M⁻¹ s⁻¹

Molecule: T128N/P129A/Q286R/M298Q/Q366N-FVIIa (enzyme)
- kcat/KM (M^-1s^-1), TF-dependent assay [1]: 1.42e+08 M⁻¹ s⁻¹
- kcat/KM, TF-independent assay [1]: 64.6 M⁻¹ s⁻¹

Molecule: {Gla swap FIX/K43I}/Q286R/M298Q/Q366N-FVIIa (enzyme)
- kcat/KM (M^-1s^-1), TF-dependent assay [1]: 1.69e+08 M⁻¹ s⁻¹
- kcat/KM, TF-independent assay [1]: 84.9 M⁻¹ s⁻¹

Molecule: T128N/P129A/T239I/Q286R/M298Q/H373F-FVIIa (enzyme)
- kcat/KM (M^-1s^-1), TF-dependent assay [1]: 1.3e+08 M⁻¹ s⁻¹
- kcat/KM, TF-independent assay [1]: 113 M⁻¹ s⁻¹

Molecule: FVIIa variant S222A (enzyme)
- kcat/KM, TF-Dependent Indirect Assay [2]: 5.73e+07 M⁻¹ s⁻¹

Molecule: T128N/P129A/T239V/Q286R/M298Q/H373F-FVIIa (enzyme)
- kcat/KM (M^-1s^-1), TF-dependent assay [1]: 2.36e+08 M⁻¹ s⁻¹
- kcat/KM, TF-independent assay [1]: 290 M⁻¹ s⁻¹

Molecule: Gla swap FIX/S52A/S60A/Q286R/M298Q-FVIIa (enzyme)
- kcat/KM (M^-1s^-1), TF-dependent assay [1]: 1.8e+08 M⁻¹ s⁻¹
- kcat/KM, TF-independent assay [1]: 989 M⁻¹ s⁻¹

B2: FVIIa variant H373S (enzyme)
chain: ANAFLEELRPGSLERECKEEQCSFEEAREIFKDAERTKLFWISYSDGDQCASSPCQNGGSCKDQLQSYICFCLPAFEGRNCETHKDDQLICVNENGGCEQYCSDHTGTKRSCRCHEGYSLLADGVSCTPTVEYPCGKIPILEKRNASKPQGRIVGGKVCPKGECPWQVLLLVNGAQLCGGTLINTIWVVSAAHCFDKIKNWRNLIAVLGEHDLSEHDGDEQSRRVAQVIIPSTYVPGTTNHDIALLRLHQPVVLTDHVVPLCLPERTFSERTLAFVRFSLVSGWGQLLDRGATALELMVLNVPRLMTQDCLQQSRKVGDSPNITEYMFCAGYSDGSKDSCKGDSGGPHATHYRGTWYLTGIVSWGQGCATVGSFGVYTRVSQYIEWLQKLMRSEPRPGVLLRAPFP
- kcat/KM, TF-Dependent Indirect Assay [2]: 2.75e+07 M⁻¹ s⁻¹

B4: FVIIa variant H216R (enzyme)
chain: B2 chain with H216R, S373H
- kcat/KM, TF-Dependent Indirect Assay [2]: 9.44e+07 M⁻¹ s⁻¹

B5: FVIIa variant S222K (enzyme)
chain: B2 chain with S222K, S373H
- kcat/KM, TF-Dependent Indirect Assay [2]: 8.02e+07 M⁻¹ s⁻¹

B7: FVIIa variant H373D (enzyme)
chain: B2 chain with S373D
- kcat/KM, TF-Dependent Indirect Assay [2]: 1.79e+07 M⁻¹ s⁻¹

B8: FVIIa variant K161V (enzyme)
chain: B2 chain with K161V, S373H
- kcat/KM, TF-Dependent Indirect Assay [2]: 5.45e+07 M⁻¹ s⁻¹

B9: T239V-FVIIa (enzyme)
chain: B2 chain with T239V, S373H
- kcat/KM (M^-1s^-1), TF-dependent assay [1]: 4.64e+07 M⁻¹ s⁻¹

B10: FVIIa variant H216K (enzyme)
chain: B2 chain with H216K, S373H
- kcat/KM, TF-Dependent Indirect Assay [2]: 6.51e+07 M⁻¹ s⁻¹

B12: S222A/H257A/Q286R/M298Q-FVIIa (enzyme)
chain: B2 chain with S222A, H257A, Q286R, M298Q, S373H
- kcat/KM (M^-1s^-1), TF-dependent assay [1]: 1.65e+08 M⁻¹ s⁻¹
- kcat/KM, TF-independent assay [1]: 345 M⁻¹ s⁻¹

B16: FVIIa variant Q286A (enzyme)
chain: B2 chain with Q286A, S373H
- kcat/KM, TF-Dependent Indirect Assay [2]: 8.55e+07 M⁻¹ s⁻¹

B17: FVIIa variant Q286K (enzyme)
chain: B2 chain with Q286K, S373H
- kcat/KM, TF-Dependent Indirect Assay [2]: 5.44e+07 M⁻¹ s⁻¹

B18: FVIIa variant K161A (enzyme)
chain: B2 chain with K161A, S373H
- kcat/KM, TF-Dependent Indirect Assay [2]: 4.22e+07 M⁻¹ s⁻¹

B23: FVIIa variant H216A (enzyme)
chain: B2 chain with H216A, S373H
- kcat/KM, TF-Dependent Indirect Assay [2]: 5.98e+07 M⁻¹ s⁻¹

B26: FVIIa variant Q286S (enzyme)
chain: B2 chain with Q286S, S373H
- kcat/KM, TF-Dependent Indirect Assay [2]: 4.64e+07 M⁻¹ s⁻¹

B29: Q286R/S222A/H257A-FVIIa (enzyme)
chain: B2 chain with S222A, H257A, Q286R, S373H
- kcat/KM (M^-1s^-1), TF-dependent assay [1]: 6.98e+07 M⁻¹ s⁻¹
- kcat/KM, TF-independent assay [1]: 21.3 M⁻¹ s⁻¹

B30: FVIIa variant H373E (enzyme)
chain: B2 chain with S373E
- kcat/KM, TF-Dependent Indirect Assay [2]: 2.79e+07 M⁻¹ s⁻¹

Further lines, results first:

- kcat/KM, TF-independent assay [1]: 20.5 M⁻¹ s⁻¹
Molecule: Gla swap FIX/S222A/H257S/Q286R-FVIIa (enzyme)

- kcat/KM, TF-independent assay [1]: 12.4 M⁻¹ s⁻¹
Molecule: WT (NovoSeven-RT®) FVIIa (enzyme)

- kcat/KM, TF-Dependent Indirect Assay [2]: 5.96e+07 M⁻¹ s⁻¹
Molecule: FVIIa variant T128N/P129A (enzyme)

- kcat/KM (M^-1s^-1), TF-dependent assay [1]: 2.71e+08 M⁻¹ s⁻¹
- kcat/KM, TF-independent assay [1]: 389 M⁻¹ s⁻¹
Molecule: {Gla swap FIX/K43I}/T128N/P129A/Q286R/M298Q-FVIIa (enzyme)

- kcat/KM, TF-dependent assay [1]: 1.33e+08 M⁻¹ s⁻¹
Molecule: T128N/P129A/Q286R/M298Q/Q366N/H373F-FVIIa (enzyme)

- kcat/KM, TF-Dependent Indirect Assay [2]: 1.05e+08 M⁻¹ s⁻¹
Molecule: FVIIa variant S52A/S60A (enzyme)

- kcat/KM, TF-independent assay [1]: 9.8 M⁻¹ s⁻¹
Molecule: WT (NovoSeven®) recombinant human FVIIa (enzyme)

- kcat/KM, TF-Dependent Indirect Assay [2]: 2.79e+07 M⁻¹ s⁻¹
Molecule: FVIIa variant A122N/G124S/A175S (enzyme)

- kcat/KM, TF-Dependent Indirect Assay [2]: 1.4e+08 M⁻¹ s⁻¹
Molecule: FVIIa variant M298Q (enzyme)

- kcat/KM (M^-1s^-1), TF-dependent assay [1]: 2.52e+08 M⁻¹ s⁻¹
- kcat/KM, TF-independent assay [1]: 218 M⁻¹ s⁻¹
Molecule: {Gla swap FIX/K43I}/T128N/P129A/Q286R/M298Q/Q366N-FVIIa (enzyme)

- kcat/KM, TF-Dependent Indirect Assay [2]: 2.64e+08 M⁻¹ s⁻¹
Molecule: FVIIa variant Q286R/M298Q/Gla Swap FIX (enzyme)

- kcat/KM (M^-1s^-1), TF-dependent assay [1]: 3.98e+07 M⁻¹ s⁻¹
Molecule: WT (NovoSeven®) (enzyme)

- kcat/KM, TF-Dependent Indirect Assay [2]: 4.88e+07 M⁻¹ s⁻¹
B1: FVIIa variant Q286N (enzyme)
chain: B2 chain with Q286N, S373H

- kcat/KM, TF-dependent assay [1]: 3.47e+07 M⁻¹ s⁻¹
B3: T239I/M298Q/H373F-FVIIa (enzyme)
chain: B2 chain with T239I, M298Q, S373F

- kcat/KM, TF-Dependent Indirect Assay [2]: 1.65e+07 M⁻¹ s⁻¹
B6: FVIIa variant Q286V (enzyme)
chain: B2 chain with Q286V, S373H

- kcat/KM (M^-1s^-1), TF-dependent assay [1]: 1.67e+07 M⁻¹ s⁻¹
B11: H257A/M298Q-FVIIa (enzyme)
chain: B2 chain with H257A, M298Q, S373H

- kcat/KM, TF-Dependent Indirect Assay [2]: 2.44e+07 M⁻¹ s⁻¹
B13: FVIIa variant Q286T (enzyme)
chain: B2 chain with Q286T, S373H

- kcat/KM, TF-Dependent Indirect Assay [2]: 6.04e+06 M⁻¹ s⁻¹
B14: FVIIa variant Q286D (enzyme)
chain: B2 chain with Q286D, S373H

- kcat/KM, TF-dependent assay [1]: 7.4e+07 M⁻¹ s⁻¹
B15: T239I/Q286R/M298Q/Q366N-FVIIa (enzyme)
chain: B2 chain with T239I, Q286R, M298Q, Q366N, S373H

- kcat/KM (M^-1s^-1), TF-dependent assay [1]: 1.11e+08 M⁻¹ s⁻¹
B19: Q286R/S222A-FVIIa (enzyme)
chain: B2 chain with S222A, Q286R, S373H

- kcat/KM, TF-Dependent Indirect Assay [2]: 1.14e+07 M⁻¹ s⁻¹
B20: FVIIa variant Q286E (enzyme)
chain: B2 chain with Q286E, S373H

- kcat/KM, TF-Dependent Indirect Assay [2]: 3.9e+07 M⁻¹ s⁻¹
B21: FVIIa variant H257A (enzyme)
chain: B2 chain with H257A, S373H

- kcat/KM, TF-Dependent Indirect Assay [2]: 5.9e+07 M⁻¹ s⁻¹
B22: FVIIa variant H257S (enzyme)
chain: B2 chain with H257S, S373H

- kcat/KM (M^-1s^-1), TF-dependent assay [1]: 2.62e+07 M⁻¹ s⁻¹
B24: T239I-FVIIa (enzyme)
chain: B2 chain with T239I, S373H

- kcat/KM (M^-1s^-1), TF-dependent assay [1]: 2.11e+07 M⁻¹ s⁻¹
B25: A175S-FVIIa (enzyme)
chain: B2 chain with A175S, S373H

- kcat/KM, TF-Dependent Indirect Assay [2]: 5.99e+07 M⁻¹ s⁻¹
B27: FVIIa variant K161S (enzyme)
chain: B2 chain with K161S, S373H

- kcat/KM, TF-Dependent Indirect Assay [2]: 4.74e+07 M⁻¹ s⁻¹
B28: FVIIa variant H216S (enzyme)
chain: B2 chain with H216S, S373H
